# From PMC8864220, “Transcriptional Regulation of the Creatine Utilization Genes of Corynebacterium glutamicum ATCC 14067 by AmtR, a Central Nitrogen Regulator”
# T1: AmtR (Corynebacterium glutamicum ATCC 14067, UniProt H7C699 1-222)
# T1 sequence: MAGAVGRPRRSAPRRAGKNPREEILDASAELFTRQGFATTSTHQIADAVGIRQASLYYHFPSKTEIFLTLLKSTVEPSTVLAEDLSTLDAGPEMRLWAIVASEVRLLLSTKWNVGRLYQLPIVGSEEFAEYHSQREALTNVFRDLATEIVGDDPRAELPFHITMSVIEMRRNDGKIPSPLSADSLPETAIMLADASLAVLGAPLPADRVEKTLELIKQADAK
# B1: PcreT-1 (oligos PcrnT-1-S/A) (dsDNA)
# DNA 1: ACCACCAATGAAACCTATCGGTCTATAGAAATTGACATTGCT
# DNA 2: AGCAATGTCAATTTCTATAGACCGATAGGTTTCATTGGTGGT
# B2: PhyuB-2 (dsDNA)
# DNA 1: CCCGGGGTGATTTTCTATCGTGTGATAGGTTTAATTCTGTTG
# DNA 2: CAACAGAATTAAACCTATCACACGATAGAAAATCACCCCGGG
# B3: PcreT-2 (oligos PcrnT-2-S/A) (dsDNA)
# DNA 1: ATTTATATTCTTTTCTATCACCCTATAGAAACATATTGGACG
# DNA 2: CGTCCAATATGTTTCTATAGGGTGATAGAAAAGAATATAAAT
# B4: PhyuB-1 (dsDNA)
# DNA 1: TTGAAAACTTTTCGATAGAGCAATAGAAATTTCCCAGCCCAA
# DNA 2: TTGGGCTGGGAAATTTCTATTGCTCTATCGAAAAGTTTTCAA
# Target: T1, AmtR
# Test: EMSA; EMSA, 20 ul: 10 mM Tris pH 7.0, 50 mM KCl, 1 mM DTT, 5 mM MgCl (so in the source), 10 mM EDTA, 2.5% glycerol, 0.05% NP-40, 50 ng/ul poly(dIdC); 100 ng DNA, 0-0.8 ug AmtR; 6% native PAGE, 0.5x TBE, GelRed; temperature not stated
# Details: protein: recombinant; tags: C-terminal His6; chain copies: 2; blunt
row,Binder,binding result
1,B1,binds
2,B2,binds
3,B3,binds
4,B4,binds
